From US20260152573A1 (ARGENX, published 2026)

Legend:
Test in all cases: screening by ELISA/Biacore
mouse serum albumin = molecular target: T1, mouse serum albumin (mouse, UniProt P07724 25-608)
T1 construct: Immobilised on SPR chips; also called mouseSA; MSA

[1] = molecular target: T2, isolated domain II of serum albumin (UniProt P02768 213-409, limits assumed)
T2 construct: domain: DII; also called isolated DII

[2] = molecular target: T3, cynomolgus monkey serum albumin (cynomolgus monkey, UniProt A2V9Z4 25-608)
T3 construct: Immobilised on SPR chips; also called cynoSA; cynomolgus albumin

Measured: binding result

B1: 2H11 (VHH)
VHH: ELQVVESGGGLVQAGGSLRLSCAASGRTFRSNTMGWFRQAPGKEREFVAAITWSGGTTYYADSVKGRFAISGDNAKNTVYLQMNSLKPEDTAVYYCAAEGPKWEPWNGIYHPADFGSWGQGTQVTVSS
notes: Clone from llama phage display libraries; also called 2H11 parental VHH; clone 2H11
no binding: all assays above
